This assay deals with T1, PDZ2 domain of human tyrosine phosphatase 1E (hPTP1E) (human, UniProt Q12923 1361-1456).
T1 construct: PDZ2 domain of human tyrosine phosphatase 1E (hPTP1E); Uniformly 15N- or 15N,13C-enriched for NMR; also called apo PDZ2; holo PDZ2; source: E. coli BL21 (DE3), purified (Ni-NTA, tag cleaved with HRV-3C protease, second Ni-NTA pass); not shown: polyhistidine, N-terminal, cleaved
T1 sequence: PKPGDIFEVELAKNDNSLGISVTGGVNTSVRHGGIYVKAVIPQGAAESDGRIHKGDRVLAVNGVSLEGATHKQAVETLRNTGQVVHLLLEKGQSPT
The assay is described as follows: NMR titration; [1H,15N]-HSQC of uniformly 15N-enriched PDZ2, free and with the peptide in twofold excess; 298 K; 150 mM sodium chloride, 50 mM phosphate buffer pH 6.8; chemical shift perturbation. To be noted: both partners purified.

B1: C-terminal eight-residue peptide derived from the Ras-associated guanine nucleotide exchange factor 2 (RA-GEF2) (peptide)
peptide: Ac-ENEQVSAV-OH
notes: the eight C-terminal residues of Ras-associated / Rap guanine nucleotide exchange factor 2 (RA-GEF2); also called RA-GEF2 peptide; source: synthetic peptide, bought: BACHEM
As for B1, the binding result is on record as “binds”.

For the origin of these results see paper PMC9584909, “Atomic resolution protein allostery from the multi-state structure of a PDZ domain” (Nature Communications, 2022).
